Experiments:
MBD-Halo-AF660 [1] = biological target: T1, MBD-Halo-AF660 (Homo sapiens, UniProt Q9UIS9 1-77); assay: single-molecule TIRF
T1 sequence: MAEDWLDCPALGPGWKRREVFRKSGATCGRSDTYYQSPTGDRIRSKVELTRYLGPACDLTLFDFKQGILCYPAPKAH

MBD-Halo-AF660 [2] = biological target: T1, MBD-Halo-AF660; assay: single-molecule TIRF; remark: listed apart in the source
MBD-Halo-AF660 [3] = biological target: T1, MBD-Halo-AF660; assay: single-molecule TIRF; remark: listed apart in the source
MBD-Halo-AF660 [4] = biological target: T1, MBD-Halo-AF660; assay: single-molecule TIRF; remark: listed apart in the source
MBD-Halo-AF660 [5] = biological target: T1, MBD-Halo-AF660; assay: single-molecule TIRF; remark: listed apart in the source
MBD-Halo-AF660 [6] = biological target: T1, MBD-Halo-AF660; assay: single-molecule TIRF; remark: listed apart in the source
MBD-Halo-AF660 [7] = biological target: T1, MBD-Halo-AF660; assay: single-molecule TIRF; remark: listed apart in the source
MBD-Halo-AF660 [8] = biological target: T1, MBD-Halo-AF660; assay: single-molecule TIRF; remark: listed apart in the source
MBD-Halo-AF660 [9] = biological target: T1, MBD-Halo-AF660; assay: single-molecule TIRF; remark: listed apart in the source
MBD-Halo-AF660 [10] = biological target: T1, MBD-Halo-AF660; assay: single-molecule TIRF; remark: listed apart in the source
MBD-Halo-AF660 [11] = biological target: T1, MBD-Halo-AF660; assay: single-molecule TIRF; remark: listed apart in the source
MBD-Halo-AF660 [12] = biological target: T1, MBD-Halo-AF660; assay: single-molecule TIRF; remark: listed apart in the source
MBD-Halo-AF660 [13] = biological target: T1, MBD-Halo-AF660; assay: single-molecule TIRF; remark: listed apart in the source
MBD-Halo-AF660 [14] = biological target: T1, MBD-Halo-AF660; assay: EMSA
[15] = biological target: T2, MBD-Halo (MBD1 MBD-GGGSG-HaloTag) (Homo sapiens, UniProt Q9UIS9 1-77); assay: EMSA
T2 sequence: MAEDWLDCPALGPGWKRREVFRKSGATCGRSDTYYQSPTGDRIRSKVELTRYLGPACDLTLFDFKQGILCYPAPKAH

MBD-Halo-AF660 [16] = biological target: T1, MBD-Halo-AF660; assay: single-molecule TIRF; remark: listed apart in the source

B1: SM single-molecule (M7-A39m-CPO) (dsDNA)
DNA 1: GTCTTCCTGCTGATGCAATCCGCTAGGTCGCGAGTCTCCGCCGCGAGAGGGCCGG
DNA 2: CCGGCCCTCTCGCGGCGGAGACTCGCGACCTAGCGGATT
DNA 3: ATAATTAATAGCATCAGCAGGAAGAC
modifications: 5mC strand 1: 21,29,31,39,42,44,53; strand 2: 2,11,13,16,24,26,34
binding result (MBD-Halo-AF660 [1]): binds

B2: M1b-A39m-CP (dsDNA)
DNA 1: GTCTTCCTGCTGATGCAATCCGCTAGGTCGCGAGTCTCCGCCGCGAGAGGGCCGG
DNA 2: CCGGCCCTCTCGCGGCGGAGACTCGCGACCTAGCGGATT
DNA 3: GCATCAGCAGGAAGAC
modifications: 5mC strand 1: 53; strand 2: 2,11,13,16,24,26,34
binding result (MBD-Halo-AF660 [2]): no binding

B3: M2a-A39m-CP (dsDNA)
DNA 1: GTCTTCCTGCTGATGCAATCCGCTAGGTCGCGAGTCTCCGCCGCGAGAGGGCCGG
DNA 2: CCGGCCCTCTCGCGGCGGAGACTCGCGACCTAGCGGATT
DNA 3: GCATCAGCAGGAAGAC
modifications: 5mC strand 1: 29,31; strand 2: 2,11,13,16,24,26,34
binding result (MBD-Halo-AF660 [3]): binds

B4: M7-A17O-CP (mixed)
DNA 1: GTCTTCCTGCTGATGCAATCCGCTAGGTCGCGAGTCTCCGCCGCGAGAGGGCCGG
DNA 2: CTTATCTGTTTCGCGACCTAGCGGATT
DNA 3: GCATCAGCAGGAAGAC
modifications: 5mC strand 1: 21,29,31,39,42,44,53
binding result (MBD-Halo-AF660 [4]): binds

B5: M7-A39m-CP (dsDNA)
DNA 1: GTCTTCCTGCTGATGCAATCCGCTAGGTCGCGAGTCTCCGCCGCGAGAGGGCCGG
DNA 2: CCGGCCCTCTCGCGGCGGAGACTCGCGACCTAGCGGATT
DNA 3: GCATCAGCAGGAAGAC
modifications: 5mC strand 1: 21,29,31,39,42,44,53; strand 2: 2,11,13,16,24,26,34
binding result (MBD-Halo-AF660 [5]): binds

B6: M4a-A17O-CP (mixed)
DNA 1: GTCTTCCTGCTGATGCAATCCGCTAGGTCGCGAGTCTCCGCCGCGAGAGGGCCGG
DNA 2: CTTATCTGTTTCGCGACCTAGCGGATT
DNA 3: GCATCAGCAGGAAGAC
modifications: 5mC strand 1: 29,31,42,44
binding result (MBD-Halo-AF660 [6]): binds

B7: M4a-CPO (structured_DNA)
DNA 1: GTCTTCCTGCTGATGCAATCCGCTAGGTCGCGAGTCTCCGCCGCGAGAGGGCCGG
DNA 2: ATAATTAATAGCATCAGCAGGAAGAC
modifications: 5mC strand 1: 29,31,42,44
binding result (MBD-Halo-AF660 [7]): binds

B8: M4a-A39m-CP (dsDNA)
DNA 1: GTCTTCCTGCTGATGCAATCCGCTAGGTCGCGAGTCTCCGCCGCGAGAGGGCCGG
DNA 2: CCGGCCCTCTCGCGGCGGAGACTCGCGACCTAGCGGATT
DNA 3: GCATCAGCAGGAAGAC
modifications: 5mC strand 1: 29,31,42,44; strand 2: 2,11,13,16,24,26,34
binding result (MBD-Halo-AF660 [8]): binds

B9: M4a-CP (structured_DNA)
DNA 1: GTCTTCCTGCTGATGCAATCCGCTAGGTCGCGAGTCTCCGCCGCGAGAGGGCCGG
DNA 2: GCATCAGCAGGAAGAC
modifications: 5mC strand 1: 29,31,42,44
binding result (MBD-Halo-AF660 [9]): binds

B10: M7-CPO (structured_DNA)
DNA 1: GTCTTCCTGCTGATGCAATCCGCTAGGTCGCGAGTCTCCGCCGCGAGAGGGCCGG
DNA 2: ATAATTAATAGCATCAGCAGGAAGAC
modifications: 5mC strand 1: 21,29,31,39,42,44,53
binding result (MBD-Halo-AF660 [10]): binds

B11: M7-A39-CP (dsDNA)
DNA 1: GTCTTCCTGCTGATGCAATCCGCTAGGTCGCGAGTCTCCGCCGCGAGAGGGCCGG
DNA 2: CCGGCCCTCTCGCGGCGGAGACTCGCGACCTAGCGGATT
DNA 3: GCATCAGCAGGAAGAC
modifications: 5mC strand 1: 21,29,31,39,42,44,53
binding result (MBD-Halo-AF660 [2]): no binding

B12: M7-A39O-CP (mixed)
DNA 1: GTCTTCCTGCTGATGCAATCCGCTAGGTCGCGAGTCTCCGCCGCGAGAGGGCCGG
DNA 2: CTTATCTGTTCCGGCCCTCTCGCGGCGGAGACTCGCGACCTAGCGGATT
DNA 3: GCATCAGCAGGAAGAC
modifications: 5mC strand 1: 21,29,31,39,42,44,53
binding result (MBD-Halo-AF660 [2]): no binding

B13: M3a-A39m-CP (dsDNA)
DNA 1: GTCTTCCTGCTGATGCAATCCGCTAGGTCGCGAGTCTCCGCCGCGAGAGGGCCGG
DNA 2: CCGGCCCTCTCGCGGCGGAGACTCGCGACCTAGCGGATT
DNA 3: GCATCAGCAGGAAGAC
modifications: 5mC strand 1: 39,42,44; strand 2: 2,11,13,16,24,26,34
binding result (MBD-Halo-AF660 [11]): binds

B14: M7-CP (structured_DNA)
DNA 1: GTCTTCCTGCTGATGCAATCCGCTAGGTCGCGAGTCTCCGCCGCGAGAGGGCCGG
DNA 2: GCATCAGCAGGAAGAC
modifications: 5mC strand 1: 21,29,31,39,42,44,53
binding result (MBD-Halo-AF660 [12]): binds

B15: M0-CP (structured_DNA)
DNA 1: GTCTTCCTGCTGATGCAATCCGCTAGGTCGCGAGTCTCCGCCGCGAGAGGGCCGG
DNA 2: GCATCAGCAGGAAGAC
binding result (MBD-Halo-AF660 [2]): no binding

B16: M2c-A39m-CP (dsDNA)
DNA 1: GTCTTCCTGCTGATGCAATCCGCTAGGTCGCGAGTCTCCGCCGCGAGAGGGCCGG
DNA 2: CCGGCCCTCTCGCGGCGGAGACTCGCGACCTAGCGGATT
DNA 3: GCATCAGCAGGAAGAC
modifications: 5mC strand 1: 42,53; strand 2: 2,11,13,16,24,26,34
binding result (MBD-Halo-AF660 [2]): no binding

B17: M7-A17O-CPO (mixed)
DNA 1: GTCTTCCTGCTGATGCAATCCGCTAGGTCGCGAGTCTCCGCCGCGAGAGGGCCGG
DNA 2: CTTATCTGTTTCGCGACCTAGCGGATT
DNA 3: ATAATTAATAGCATCAGCAGGAAGAC
modifications: 5mC strand 1: 21,29,31,39,42,44,53
binding result (MBD-Halo-AF660 [13]): binds

B18: SM 55 bp (M7/M7_rev) (dsDNA)
DNA 1: GTCTTCCTGCTGATGCAATCCGCTAGGTCGCGAGTCTCCGCCGCGAGAGGGCCGG
DNA 2: CCGGCCCTCTCGCGGCGGAGACTCGCGACCTAGCGGATTGCATCAGCAGGAAGAC
modifications: 5mC strand 1: 21,29,31,39,42,44,53; strand 2: 2,11,13,16,24,26,34
binding result (MBD-Halo-AF660 [14]): binds
binding result [15]: binds

ATAATTAATAGCATCAGCAGGAAGAC (ssDNA) [CPO alone (NTC)]
binding result (MBD-Halo-AF660 [16]): no binding
